# In publication PMC11980842, “MprF from Pseudomonas aeruginosa is a promiscuous lipid scramblase with broad substrate specificity” (Science Advances, 2025):
# B1: Sybody 29 (synthetic nanobody against PaMprF) (VHH)
# VHH: GVQLVESGGGLVQAGGSLRLSCAASGFPVSSAWMAWYRQAPGKEREWVAAIFSAGQKTRYADSVKGRFTISRDNAKNTVYLQMNSLKPEDTAVYYCNVKDTGHWWDIYDYWGQGTQVTVSA
# notes: synthetic nanobody from the loop sybody sublibrary; the structure of its complex with PaMprF was deposited as PDB 9GOE; Selected by one round of ribosome display and two rounds of phage display against biotinylated full-length PaMprF; also called Sb29
# Tests used:
# [1] = molecular target: T1, Truncated PaMprF construct of residues 1 to 545 (TM region) (Pseudomonas aeruginosa PAO1); experiment: pull-down; truncated PaMprF construct of residues 1 to 545 with sybodies; who was held is not told
# T1 construct: MprF of Pseudomonas aeruginosa (PAO1), residues 1 to 545, representing the transmembrane region; also called truncated form of PaMprF representing the TM region
# T1 chain: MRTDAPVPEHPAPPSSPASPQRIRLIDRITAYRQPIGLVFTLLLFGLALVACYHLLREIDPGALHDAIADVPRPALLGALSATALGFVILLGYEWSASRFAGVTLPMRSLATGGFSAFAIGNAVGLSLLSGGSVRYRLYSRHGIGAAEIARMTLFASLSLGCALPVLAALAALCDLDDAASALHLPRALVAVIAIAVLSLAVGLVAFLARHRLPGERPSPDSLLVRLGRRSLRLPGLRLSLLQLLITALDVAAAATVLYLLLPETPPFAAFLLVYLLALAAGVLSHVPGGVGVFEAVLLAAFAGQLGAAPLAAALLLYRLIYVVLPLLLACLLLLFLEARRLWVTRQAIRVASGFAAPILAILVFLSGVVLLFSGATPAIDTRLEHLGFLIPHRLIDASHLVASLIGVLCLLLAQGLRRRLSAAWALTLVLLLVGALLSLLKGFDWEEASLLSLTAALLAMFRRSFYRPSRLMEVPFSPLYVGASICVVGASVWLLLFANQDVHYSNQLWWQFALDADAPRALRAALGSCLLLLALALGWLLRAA
# [2] = molecular target: T2, Multiple peptide resistance factor (MprF) from Pseudomonas aeruginosa, full length (Pseudomonas aeruginosa PAO1); experiment: cryo-EM structure; PaMprF in SaposinA-lipid nanoparticles (POPC:POPG 7:3 mol/mol), separated by SEC, mixed with a 1.2x molar excess of Sb29; details: both partners purified
# T2 construct: MprF of Pseudomonas aeruginosa, gene cloned from PAO1 genomic DNA into p7XC3H; full length, monomer of 96 kDa; The monomeric SEC fraction was pooled for downstream experiments; also called PaMprF; WT PaMprF; source: E. coli C41, purified (Ni Sepharose, SEC); reconstituted into SaposinA-lipid nanoparticles for cryo-EM
# T2 chain: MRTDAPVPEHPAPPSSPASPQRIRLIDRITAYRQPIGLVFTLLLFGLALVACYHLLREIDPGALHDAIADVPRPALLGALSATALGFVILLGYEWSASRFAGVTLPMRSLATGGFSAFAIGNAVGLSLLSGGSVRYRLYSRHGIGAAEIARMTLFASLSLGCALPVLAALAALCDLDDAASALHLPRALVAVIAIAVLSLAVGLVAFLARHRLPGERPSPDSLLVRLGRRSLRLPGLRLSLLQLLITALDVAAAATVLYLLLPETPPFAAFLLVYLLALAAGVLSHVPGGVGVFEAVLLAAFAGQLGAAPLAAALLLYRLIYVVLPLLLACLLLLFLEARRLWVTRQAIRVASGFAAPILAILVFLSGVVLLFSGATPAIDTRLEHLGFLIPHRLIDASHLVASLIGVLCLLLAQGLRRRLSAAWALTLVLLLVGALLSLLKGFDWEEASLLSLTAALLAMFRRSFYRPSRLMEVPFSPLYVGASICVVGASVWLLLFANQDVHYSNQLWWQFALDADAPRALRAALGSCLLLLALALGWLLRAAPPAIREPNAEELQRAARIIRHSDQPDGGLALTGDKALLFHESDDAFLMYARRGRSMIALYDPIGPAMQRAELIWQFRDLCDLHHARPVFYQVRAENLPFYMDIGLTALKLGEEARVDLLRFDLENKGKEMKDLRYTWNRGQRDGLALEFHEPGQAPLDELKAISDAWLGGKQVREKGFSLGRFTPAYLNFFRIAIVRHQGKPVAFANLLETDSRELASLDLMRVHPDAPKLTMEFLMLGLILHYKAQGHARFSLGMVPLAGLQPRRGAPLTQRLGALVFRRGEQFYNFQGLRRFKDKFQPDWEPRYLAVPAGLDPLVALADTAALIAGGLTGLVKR
binder,measurement,setting,value
B1,binding result,[1],binds
same,binding result,[2],binds
